Laboratory results published in publication PMC9314330, “Structural basis of human TREX1 DNA degradation and autoimmune disease” (Nature Communications, 2022).
Where a chain is given by its changes, count along the chain named. Numbers in names are those of the source.

Tests used:
[1] = target: the molecule itself; assay: crystal structure; WT hTREX1 with 22-nt Y-form dsDNA (1:1.3 protein:DNA), 0.05 M Li2SO4, 0.1 M Bis-Tris pH 6.5, 25% PEG-3350, 18 °C; spacegroup P 1 21 1, 3 copies of hTREX1-DNA dimer in the asymmetric unit
[2] = target: the molecule itself; assay: crystal structure; apo hTREX1 chimeras, hanging-drop vapor diffusion at 18 °C; spacegroup P 41 21 2, one hTREX1 dimer in the asymmetric unit
hTREX1 K160R = target: T1, hTREX1 K160R (Homo sapiens, UniProt Q9NSU2 1-242, K160R); assay: thermal shift (thermofluor); 10 uM protein; 10 or 20 uM DNA; higher than WT; Tm about 63.2 C at 20 uM DNA (mean of source data, column order inferred); EMSA: 20 mM HEPES-NaOH pH 7.8, 75 mM KCl, 10 mM EDTA, 1 mM DTT, 4 C 30 min, 2% agarose; thermofluor: 20 mM Tris-HCl pH 7.5, 75 mM KCl, 1 mM TCEP, DNA preincubated at 4 C 30 min, 20-95 C ramp; crystals: 20 mM HEPES-KOH pH 7.5, 78 mM KCl, 1 mM TCEP over 0.05 M Li2SO4, …; conditions: protein: recombinant; tags: none (His-SUMO2 removed by SENP2); chain copies: 2; blunt; self-complementary strand
T1 sequence: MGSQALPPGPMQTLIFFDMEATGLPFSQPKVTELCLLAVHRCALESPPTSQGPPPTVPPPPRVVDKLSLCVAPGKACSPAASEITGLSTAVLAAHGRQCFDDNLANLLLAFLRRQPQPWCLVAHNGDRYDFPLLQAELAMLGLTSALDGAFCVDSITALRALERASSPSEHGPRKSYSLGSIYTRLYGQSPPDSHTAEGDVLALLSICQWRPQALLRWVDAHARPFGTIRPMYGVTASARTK

B1: human TREX1 (wildtype), N-terminal enzymatic domain, amino acids 1-242 (enzyme, UniProt Q9NSU2-3 1-242, looked up)
chain: T1 sequence with R160K
notes: human TREX1, C-terminal truncation, amino acids 1-242 of the 314-residue protein (catalytic domain 1-242, C-terminus 243-314); numbers count on: the 314-residue form; Crystallised with 22-nt Y-form dsDNA (2:2 complex); also called hTREX1; WT hTREX1; source: E. coli BL21-RIL DE3, purified (Ni-NTA, Heparin HP, Superdex S75)
binding result [1]: binds

B2: hTREX1 Chi 5.1 (A5T/P8H/P10H), amino acids 1-242 (enzyme, human, UniProt Q9NSU2-3 1-242, looked up)
chain: T1 sequence with A5T, P8H, P10H, R160K
notes: human TREX1, amino acids 1-242 of the 314-residue protein, with three mouse-like mutations; numbers count on: the 314-residue form; also called human TREX1 Chi 5.1; source: E. coli BL21-RIL DE3, purified (Ni-NTA, Heparin HP, Superdex S75)
binding result [2]: binds

B3: 30-bp dsDNA (dsDNA)
DNA 1: GCTCGAGTCATGACGCGTCATGACTCGAGC
DNA 2: B3 DNA 1
binding result (hTREX1 K160R): binds
